Data taken from patent publication US20130129725A1 (published 2013).
Numbering of substitutions follows the chain as printed.

B1: 8F9 (antibody, V domains shown)
VH: QVQLVESGGGVVQPGRSLRLSCAASGFTFSSYGMHWVRQAPGKGLEWVAVIWYDGRNKYHADSVKGRFTISRDNSKNTLYLQMNSLRAEDTAVYYCARDHPVAGTSFDYWGQGTLVTVSS
VL: QSVLTQPPSVSAAPGQKVTISCSGSSSNIGNNYVSWYQQLPGTAPKLLIYDNNKRPSGIPDRFSGSKSGTSATLGITGLQTGDEADYYCGTWDSSLSAVVFGGGTKLTVLG
B2: 3F4 (antibody, V domains shown)
VH: B1 VH with T28I, S30R, W52S, R56S, H60Y
VL: B1 VL with K54N, G90E, V99G
B3: 9D10 (antibody, V domains shown)
VH: B1 VH with S30R, K58E, H60Y, Q82R
VL: B1 VL with K54R
B4: 1A2 (antibody, V domains shown)
VH: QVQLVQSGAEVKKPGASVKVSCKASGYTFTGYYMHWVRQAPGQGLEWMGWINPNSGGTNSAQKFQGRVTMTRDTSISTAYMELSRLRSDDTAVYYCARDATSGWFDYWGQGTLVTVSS
VL: DIVMTQTPLSSPVTLGQPASISCRSSQSLVYSDGNTYLSWLQQRPGQPPRLLIYKISNRFSGVPDRFSGSGAGTDFTLKISRVEADDVGIYYCMQAIEFPWTFGQGTQVEIKR
B5: 3B4 (antibody, V domains shown)
VH: QVQLVQSGAEVKKPGASVKVSCKASGYTFTAYYMHWVRQAPGQGLEWMGWINPNSGGTNSAQKFQGRVTMTRDTSIRTAYMELSWLRSDDTAVYYCARDATSGWFDIWGQGTPVTVSS
VL: B4 VL with Y31H, S32Y, D86E, I97L, Q108K
B6: 1B5 (antibody, V domains shown)
VH: B5 VH with I107F
VL: B4 VL with S10T, Y31H, S32Y, D86E, I97L, Q108K
B7: 10H3 (antibody, V domains shown)
VH: B5 VH with K12R, N54Y, R77S, I107F, P113L
VL: B4 VL with Y31H, S32Y, E84A, D86E, I97L, Q108K

Molecular target: biotinylated hu-β-klotho (UniProt Q86Z14 53-996, biotinylated (sites not given))
Assay: Octet BLI

Sequence of biotinylated hu-β-klotho (Q86Z14 53-996): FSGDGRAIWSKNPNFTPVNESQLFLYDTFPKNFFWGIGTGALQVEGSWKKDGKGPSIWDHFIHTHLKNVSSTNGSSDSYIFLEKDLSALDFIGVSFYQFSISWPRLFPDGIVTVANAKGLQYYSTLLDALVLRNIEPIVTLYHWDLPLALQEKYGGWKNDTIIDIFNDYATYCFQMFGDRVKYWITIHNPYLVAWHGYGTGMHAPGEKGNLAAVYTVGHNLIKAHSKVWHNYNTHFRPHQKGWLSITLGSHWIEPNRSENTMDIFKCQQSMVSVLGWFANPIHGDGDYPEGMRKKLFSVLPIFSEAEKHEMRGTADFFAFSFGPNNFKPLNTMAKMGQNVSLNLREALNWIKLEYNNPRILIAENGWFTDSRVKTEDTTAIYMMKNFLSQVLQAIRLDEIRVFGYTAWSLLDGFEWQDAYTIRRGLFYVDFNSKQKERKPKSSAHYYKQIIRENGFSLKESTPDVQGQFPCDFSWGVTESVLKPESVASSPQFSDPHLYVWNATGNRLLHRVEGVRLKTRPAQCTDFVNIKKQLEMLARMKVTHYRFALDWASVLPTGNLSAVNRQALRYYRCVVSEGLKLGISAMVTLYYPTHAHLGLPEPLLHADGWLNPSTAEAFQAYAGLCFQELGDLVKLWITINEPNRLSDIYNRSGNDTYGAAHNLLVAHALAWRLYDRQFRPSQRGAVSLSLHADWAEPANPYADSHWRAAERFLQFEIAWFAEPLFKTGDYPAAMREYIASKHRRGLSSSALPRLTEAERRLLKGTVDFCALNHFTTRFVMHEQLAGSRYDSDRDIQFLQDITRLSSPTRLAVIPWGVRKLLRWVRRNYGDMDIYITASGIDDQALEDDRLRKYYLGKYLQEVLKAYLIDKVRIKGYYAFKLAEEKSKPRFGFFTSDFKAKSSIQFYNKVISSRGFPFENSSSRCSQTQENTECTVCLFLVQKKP

Row | Binder | Kd
1 | B1 | 422 pM
2 | B2 | 281 pM
3 | B3 | 298 pM
4 | B4 | 2140 pM
5 | B5 | 6080 pM
6 | B6 | 578 pM
7 | B7 | 563 pM
